Measured values: US7192728B2, “Screening assays for agents that alter inhibitor of apoptosis (IAP) protein regulation of caspase activity” (The Burnham Institute, priority 1997, dated 2007)

How the values were obtained:
[1] = system: DEVD-pNA hydrolysis activity in Jurkat T cell cytosolic extracts; test: Cytochrome c/dATP-induced caspase activation (DEVD-pNA hydrolysis) in Jurkat T cell cytosolic extracts; type: biochemical
Procedure: (§1) Cells were washed with ice cold buffer A (20 mM Hepes (pH 7.5), 10 mM KCl, 1.5 mM MgCl2, 1 mM EDTA, 1 mM DTT and 0.1 mM PMSF) and suspended in 1 vol buffer A, then incubated on ice for 20 min. 293 cells were disrupted by passage 15× through a 26 gauge needle and Jurkat T cells were disrupted by dounce homogenization in 2 ml using 15 strokes with a pestle B. Cell extracts (10–15 mg total protein/ml) were clarified by centrifugation at 16,000×g for 30 min, then the NaCl concentration was increased by 50 mM. Cytosolic fractions were used immediately or stored frozen at −80° C.
Caspase activity was assayed by release of either 7-amino-4-trifluoromethyl-coumarin (AFC) or p-nitroanilide (pNA) from benzylyoxycarbonyl-DEVD (SEQ ID NO: 2) or benzylyoxycarbonyl-YVAD (SEQ ID NO: 3) synthetic peptides using a Molecular Devices Spectromax 340 for AFC labeled peptides or Perkin/Elmer LS50B for pNA labeled peptides (see Example II; see, also, Zhou et al., supra, 1997). Cytosolic extracts from 293 cells or Jurkat T cells were used directly (negative control) or were treated with 1 μM cytochrome c and 1 mM dATP or with cytochrome c, dATP and 0.2 μM GST-XIAP. Additional control reactions were performed by substituting 2 μM GST-Bcl-2, GST-Bax, GST-NM23 or GST-CD40 cytosolic domain, or 5 μM His6-S5a protein for GST-XIAP. DEVD-pNA hydrolysis was measured at various times and multiple experiments were performed using several different GST-XIAP preparations.

caspase-8 = target: T1, caspase-8 (Homo sapiens, UniProt Q14790); test: Inhibition of purified recombinant caspase-8, DEVD substrate hydrolysis; type: biochemical
T1 construct: a cDNA encoding the catalytic subunit of caspase-8 (Ser 217 to the C-terminus); His6; made in house; host or cells: E. coli BL21(DE3)pLysS
Procedure: (§2) Purified recombinant caspase-1, caspase-3, caspase-6, caspase-7 or caspase-8 were incubated with DEVD-pNA, either alone or with a 10-fold to 50-fold molar excess of GST-XIAP ([…]) and substrate hydrolysis was measured. Purified active caspase concentrations ranged from 0.1 nM to 10 nM. XIAP concentration ranged from 0.1 nM to 500 nM. Assays were performed in caspase buffer (50 mM Tris, pH 7.4, 100 mM NaCl, 10% sucrose, 5–10 mM DTT, 1 mM EDTA and 0.1% CHAPS).
(§3) Equilibria were determined from progress curves when substrate hydrolysis reached a steady-state; slopes were calculated by curve fit analysis using the cricket graph program. Experiments were performed using purified recombinant caspase-3, caspase-6, or caspase-7. DEVD-AFC hydrolysis was measured using 0.1 nM caspase and a range of concentrations (0.2 to 12 μM) of recombinant XIAP (rXIAP). […] Average ratio velocities (vi/vo, where “vi” indicates presence of GST-XIAP and “vo” indicates absence of GST-XIAP) were determined.

caspase-6 [2] = target: T2, caspase-6 (Homo sapiens, UniProt P55212); test: GST pull-down binding to caspase-6; conditions: glutathione-Sepharose beads, immunoblot
T2 construct: Purified active caspase concentrations ranged from 0.1 nM to 10 nM; His6; made in house; host or cells: E. coli BL21(DE3)pLysS
T2 sequence (P55212 24-179 limits assumed): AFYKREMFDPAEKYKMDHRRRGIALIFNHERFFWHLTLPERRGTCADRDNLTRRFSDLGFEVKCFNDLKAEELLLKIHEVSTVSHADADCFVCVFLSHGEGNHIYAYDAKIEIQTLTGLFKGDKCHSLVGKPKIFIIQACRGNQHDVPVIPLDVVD
T2 sequence (P55212 194-293 limits assumed): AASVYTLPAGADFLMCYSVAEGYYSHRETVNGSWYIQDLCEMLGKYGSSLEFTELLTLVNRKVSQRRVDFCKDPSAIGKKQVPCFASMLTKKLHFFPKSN

[3] = system: HeLa cell nuclei in cytosolic extract; test: Apoptosis of isolated nuclei in cell-free system (cytochrome c/dATP); conditions: 0.4 μM protein with 10 μM cytochrome c and 1 mM dATP; 37° C., 60 min; baseline about 15%, cytochrome c/dATP alone >95%
Procedure: as §1
Isolated nuclei were prepared from HeLa cells (Martin et al., supra, 1995). Approximately 5×10^4 to 1×10^5 nuclei were added to 20 μl cytosolic extract and apoptosis was initiated by adding 10 μM horse heart cytochrome c (Sigma, Inc.; St. Louis Mo.) and 1 mM dATP, alone (positive control) or with cytochrome c, dATP and either 0.4 μM GST-XIAP or 0.4 μM GST-Bcl-2. Following incubation at 37° C. for 60 min., nuclei were stained with 1 μg/ml of acridine orange and ethidium bromide and the percentage nuclei with apoptotic features, including extremely condensed chromatin and the genesis of fragmentation of nuclei, was determined.

caspase-6 [4] = target: T2, caspase-6; test: Inhibition of purified recombinant caspase-6, DEVD substrate hydrolysis; type: biochemical
Procedure: as §2, §3

[5] = DEVD-AFC hydrolysis with/without GST-XIAP

T1 sequence (Q14790 217-374 limits assumed): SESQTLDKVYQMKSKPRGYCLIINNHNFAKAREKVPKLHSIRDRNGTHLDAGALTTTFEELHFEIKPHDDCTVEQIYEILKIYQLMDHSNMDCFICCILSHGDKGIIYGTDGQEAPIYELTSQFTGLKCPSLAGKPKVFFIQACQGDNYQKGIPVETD
T1 sequence (Q14790 385-479 limits assumed): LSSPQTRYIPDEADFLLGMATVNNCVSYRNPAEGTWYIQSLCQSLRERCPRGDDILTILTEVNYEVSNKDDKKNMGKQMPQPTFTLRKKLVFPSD

XIAP: X chromosome linked inhibitor of apoptosis protein (Genbank U32974), used mostly as recombinant GST fusion or expressed from plasmid
DEVD-pNA hydrolysis, ΔA405 after 15 min ([1]; untreated ≈0.02): ≈ 0.025
DEVD-pNA hydrolysis, ΔA405 after 20 min ([1]; untreated ≈0.025): ≈ 0.03
interference with substrate cleavage by caspase-8 (caspase-8; 50-fold molar excess): did not interfere
average ratio velocity (vi/vo), caspase-8 (caspase-8; [5]): about 1.0
binding of caspase-6 (in words) (caspase-6 [2]): not caspase-6
apoptotic nuclei [3]: about 15%
interference with substrate cleavage by caspase-6 (caspase-6 [4]; 50-fold molar excess): did not interfere
average ratio velocity (vi/vo), caspase-6 (caspase-6 [4]; [5]): about 1.0
